Results: patent US20240228660A1 (IP2IPO INNOVATIONS, published 2024)
Where two headings read alike, the source gives them in different places.

Tests used:
human full-length VWF [1] = target: T1, human full-length VWF (human, UniProt P04275 764-2813); experiment: SPR, Biacore T200, antibody captured on Protein A, full-length VWF as analyte, single-cycle kinetics
Experimental: (§1) Antibodies were captured on Protein A sensor chip. The system was purged using running buffer (10 mM HEPES pH 7.4, 300 mM NaCl, 3 mM EDTA, 0.05% P20) and a series S Protein A chip was docked in the Biacore T200. The surface was conditioned with 10 mM glycine-HCl pH 1.5 regeneration solution (3 injections). Each antibody was diluted to ˜0.8 μg/ml in running buffer to capture ˜350 RU on flow cells 2, 3 and 4 (flow cell 1 used as in-line reference cell). Single-cycle kinetic analysis of human full-length VWF binding to antibodies was performed using the following parameters:

human full-length VWF [2] = target: T1, human full-length VWF; experiment: SPR Biacore T200, antibody captured on Protein A chip, full-length VWF as analyte, single-cycle kinetics
Experimental: as §1

human full-length VWF [3] = target: T1, human full-length VWF; experiment: SPR, Biacore T200, antibody captured on Protein A, full-length VWF as analyte, single-cycle kinetics; remark: listed apart in the source
human full-length VWF [4] = target: T1, human full-length VWF; experiment: as above; remark: listed apart in the source

Kd (human full-length VWF [1]) | koff (human full-length VWF [1]) | kon (human full-length VWF [1]) | Kd (human full-length VWF [2]) | Kd (human full-length VWF [4]) | koff (human full-length VWF [4]) | kon (human full-length VWF [4]) | Binder | further results
0.649 pM | 2.67e-08 s⁻¹ | 41200 M⁻¹ s⁻¹ | < 1000 pM |  |  |  | 4-H3_H6_L0 (antibody, human IgG1, kappa, humanised, human IgG1 kappa) heavy: not shown light: DIQMTQSPSSLSASVGDRVTITCLASEDIASGISWYQQKPGKAPKLLIYGASNLESGVPSRFSGSGSGTDFTLTISSLQPEDFATYYCLGGYSFSSNGLTFGGGTKVEIKTVAAPSVFIFPPSDEQLKSGTASVVCLLNNFYPREAKVQWKVDNALQSGNSQESVTEQDSKDSTYSLSSTLTLSKADYEKHKVYACEVTHQGLSSPVTKSFNRGEC | 
0.575 pM | 5.95e-08 s⁻¹ | 103000 M⁻¹ s⁻¹ | < 1000 pM |  |  |  | 4-H3_H5_L1 (antibody, human IgG1, kappa, humanised, human IgG1 kappa) heavy: not shown light: DYQMTQSPSSLSASVGDRVTITCLASEDIASGISWYQQKPGKAPKLLIYGASNLESGVPSRFSGSGSGTDYTLTISSLQPEDFATYYCLGGYSFSSNGLTFGGGTKVEIKTVAAPSVFIFPPSDEQLKSGTASVVCLLNNFYPREAKVQWKVDNALQSGNSQESVTEQDSKDSTYSLSSTLTLSKADYEKHKVYACEVTHQGLSSPVTKSFNRGEC | 
 |  |  | < 1000 pM |  |  |  | 4-H3_H1_L0 (antibody, human IgG1, kappa, humanised, human IgG1 kappa) heavy: not shown light: DIQMTQSPSSLSASVGDRVTITCLASEDIASGISWYQQKPGKAPKLLIYGASNLESGVPSRFSGSGSGTDFTLTISSLQPEDFATYYCLGGYSFSSNGLTFGGGTKVEIKTVAAPSVFIFPPSDEQLKSGTASVVCLLNNFYPREAKVQWKVDNALQSGNSQESVTEQDSKDSTYSLSSTLTLSKADYEKHKVYACEVTHQGLSSPVTKSFNRGEC | Kd (human full-length VWF [3]): 18.7 pM; koff (human full-length VWF [3]): 2.49e-06 s⁻¹; kon (human full-length VWF [3]): 134000 M⁻¹ s⁻¹
0.366 pM | 4.93e-08 s⁻¹ | 135000 M⁻¹ s⁻¹ | < 1000 pM |  |  |  | 4-H3_H5_L0 (antibody, human IgG1, kappa, humanised, human IgG1 kappa) heavy: not shown light: DIQMTQSPSSLSASVGDRVTITCLASEDIASGISWYQQKPGKAPKLLIYGASNLESGVPSRFSGSGSGTDFTLTISSLQPEDFATYYCLGGYSFSSNGLTFGGGTKVEIKTVAAPSVFIFPPSDEQLKSGTASVVCLLNNFYPREAKVQWKVDNALQSGNSQESVTEQDSKDSTYSLSSTLTLSKADYEKHKVYACEVTHQGLSSPVTKSFNRGEC | 
1.61 pM | 1.73e-07 s⁻¹ | 108000 M⁻¹ s⁻¹ | < 1000 pM |  |  |  | 4-H3_H7_L0 rep (antibody, human IgG1, kappa, V domains shown, humanised, human IgG1 kappa) VH: QVQLVESGGGVVQPGRSLRLSCAASGIDLTSNAMNWVRQAPGKGLEWIGGIYGHDTSYYAAWAKGRFTISRDNSKNTVYLQMNSLRAEDTATYFCARGFIYFDIWGQGTLVTVSS VL: DIQMTQSPSSLSASVGDRVTITCLASEDIASGISWYQQKPGKAPKLLIYGASNLESGVPSRFSGSGSGTDFTLTISSLQPEDFATYYCLGGYSFSSNGLTFGGGTKVEIKT | 
5.84 pM | 3.82e-07 s⁻¹ | 65400 M⁻¹ s⁻¹ | < 1000 pM |  |  |  | 4-H3_H7_L1 (antibody, human IgG1, kappa, V domains shown, humanised, human IgG1 kappa) VH: QVQLVESGGGVVQPGRSLRLSCAASGIDLTSNAMNWVRQAPGKGLEWIGGIYGHDTSYYAAWAKGRFTISRDNSKNTVYLQMNSLRAEDTATYFCARGFIYFDIWGQGTLVTVSS VL: DYQMTQSPSSLSASVGDRVTITCLASEDIASGISWYQQKPGKAPKLLIYGASNLESGVPSRFSGSGSGTDYTLTISSLQPEDFATYYCLGGYSFSSNGLTFGGGTKVEIKT | 
 |  |  | < 1000 pM |  |  |  | 4-H3_H1_L1 (antibody, human IgG1, kappa, humanised, human IgG1 kappa) heavy: not shown light: DYQMTQSPSSLSASVGDRVTITCLASEDIASGISWYQQKPGKAPKLLIYGASNLESGVPSRFSGSGSGTDYTLTISSLQPEDFATYYCLGGYSFSSNGLTFGGGTKVEIKTVAAPSVFIFPPSDEQLKSGTASVVCLLNNFYPREAKVQWKVDNALQSGNSQESVTEQDSKDSTYSLSSTLTLSKADYEKHKVYACEVTHQGLSSPVTKSFNRGEC | Kd (human full-length VWF [3]): 13.8 pM; koff (human full-length VWF [3]): 4.27e-07 s⁻¹; kon (human full-length VWF [3]): 31000 M⁻¹ s⁻¹
 |  |  | < 1000 pM |  |  |  | 4-H3_H0_L0 (antibody, human IgG1, kappa, V domains shown, humanised, human IgG1 kappa) VH: QVQLVESGGGVVQPGRSLRLSCAASGFTFSSNAMNWVRQAPGKGLEWVAGIYGHDTSYYAAWAKGRFTISRDNSKNTLYLQMNSLRAEDTAVYYCARGFIYFDIWGQGTLVTVSS VL: DIQMTQSPSSLSASVGDRVTITCLASEDIASGISWYQQKPGKAPKLLIYGASNLESGVPSRFSGSGSGTDFTLTISSLQPEDFATYYCLGGYSFSSNGLTFGGGTKVEIKT | 
1.73 pM | 1.14e-07 s⁻¹ | 65700 M⁻¹ s⁻¹ | < 1000 pM |  |  |  | 4-H3_H6_L1 (antibody, human IgG1, kappa, humanised, human IgG1 kappa) heavy: not shown light: DYQMTQSPSSLSASVGDRVTITCLASEDIASGISWYQQKPGKAPKLLIYGASNLESGVPSRFSGSGSGTDYTLTISSLQPEDFATYYCLGGYSFSSNGLTFGGGTKVEIKTVAAPSVFIFPPSDEQLKSGTASVVCLLNNFYPREAKVQWKVDNALQSGNSQESVTEQDSKDSTYSLSSTLTLSKADYEKHKVYACEVTHQGLSSPVTKSFNRGEC | 
 |  |  | < 1000 pM |  |  |  | 4-H3_H3_L0 (antibody, human IgG1, kappa, V domains shown, humanised, human IgG1 kappa) VH: QVQLVESGGGVVQPGRSLRLSCAASGIDLTSNAMNWVRQAPGKGLEWIGGIYGHDTSYYAAWAKGRFTISRDNSKNTVYLQMNSLRAEDTAVYYCARGFIYFDIWGQGTLVTVSS VL: DIQMTQSPSSLSASVGDRVTITCLASEDIASGISWYQQKPGKAPKLLIYGASNLESGVPSRFSGSGSGTDFTLTISSLQPEDFATYYCLGGYSFSSNGLTFGGGTKVEIKT | Kd (human full-length VWF [3]): 1.92 pM; koff (human full-length VWF [3]): 1.45e-07 s⁻¹; kon (human full-length VWF [3]): 75600 M⁻¹ s⁻¹
 |  |  | < 1000 pM |  |  |  | 4-H3_H0_L1 rep (antibody, human IgG1, kappa, V domains shown, humanised, human IgG1 kappa) VH: QVQLVESGGGVVQPGRSLRLSCAASGFTFSSNAMNWVRQAPGKGLEWVAGIYGHDTSYYAAWAKGRFTISRDNSKNTLYLQMNSLRAEDTAVYYCARGFIYFDIWGQGTLVTVSS VL: DYQMTQSPSSLSASVGDRVTITCLASEDIASGISWYQQKPGKAPKLLIYGASNLESGVPSRFSGSGSGTDYTLTISSLQPEDFATYYCLGGYSFSSNGLTFGGGTKVEIKT | Kd (human full-length VWF [3]): 4.12 pM; koff (human full-length VWF [3]): 1.52e-07 s⁻¹; kon (human full-length VWF [3]): 36900 M⁻¹ s⁻¹
 |  |  |  | 14.4 pM | 3.78e-07 s⁻¹ | 26200 M⁻¹ s⁻¹ | 1-G5_H2_VL-par (antibody, human IgG1, kappa, V domains shown, also called 1-G5_H2 (hIgG1)) VH: QQLVESGGGVVQPGRSLRLSCAASGFSLSSYDMTWVRQAPGKGLEWIGSIHATGITFYANWAKGRFTTSKDSNTVYLQMNSLRAEDTATYFCARGLVDLNMWGQGTLVTVSS VL: DPVMTQTASSVSAAVGGTVTINCQASQSVYNNNYLSWYQQKPGQPPKLLIYDASTLASGVPSRFSGNGSGTQFTLTISGVQCDDAATYYCQGSYYSGGWDTAFGGGTKVVVKT | 
 |  |  |  | 6.77 pM | 1.66e-07 s⁻¹ | 24600 M⁻¹ s⁻¹ | 1-G5_H1_VL-par (antibody, human IgG1, kappa, V domains shown, also called 1-G5_H1 (hIgG1)) VH: not shown VL: DPVMTQTASSVSAAVGGTVTINCQASQSVYNNNYLSWYQQKPGQPPKLLIYDASTLASGVPSRFSGNGSGTQFTLTISGVQCDDAATYYCQGSYYSGGWDTAFGGGTKVVVKT | 
 |  |  |  | 8.52 pM | 7.2e-07 s⁻¹ | 84500 M⁻¹ s⁻¹ | 1-G5_H0_VL-par rep (antibody, human IgG1, kappa, V domains shown, also called 1-G5_H0 (hIgG1)) VH: QVQLVESGGGVVQPGRSLRLSCAASGFTFSSYDMTWVRQAPGKGLEWVASIHATGITFYANWAKGRFTISRDNSKNTLYLQMNSLRAEDTAVYYCARGLVDLNMWGQGTLVTVSS VL: DPVMTQTASSVSAAVGGTVTINCQASQSVYNNNYLSWYQQKPGQPPKLLIYDASTLASGVPSRFSGNGSGTQFTLTISGVQCDDAATYYCQGSYYSGGWDTAFGGGTKVVVKT | 
 |  |  |  | 4.09 pM | 3.59e-07 s⁻¹ | 87700 M⁻¹ s⁻¹ | 3-H9_H0_VL-par (antibody, human IgG1, kappa, V domains shown, also called 3-H9_H0 (hIgG1)) VH: QVQLVESGGGVVQPGRSLRLSCAASGFTFSNYDMSWVRQAPGKGLEWVASIHAIGITYYANWAEGRFTISRDNSKNTLYLQMNSLRAEDTAVYYCARGLVDLNMWGQGTLVTVSS VL: AIKMTQTPSSVSVAVGGTVTINCQSSQSVYSNNLLSWYQQKPGQPPKLLIYDASTLESGVPSRFKGSGSGTQFTLTISGVQCEDAATYYCQGSYYSSGWYNTFGGGTEVVVET | 
 |  |  |  | 0.475 pM |  |  | 1-G5_VH-par_VL-par (antibody, human IgG1, kappa, also called 1-G5_parental (hIgG1)) heavy chain: not shown light chain: DPVMTQTASSVSAAVGGTVTINCQASQSVYNNNYLSWYQQKPGQPPKLLIYDASTLASGVPSRFSGNGSGTQFTLTISGVQCDDAATYYCQGSYYSGGWDTAFGGGTKVVVKTVAAPSVFIFPPSDEQLKSGTASVVCLLNNFYPREAKVQWKVDNALQSGNSQESVTEQDSKDSTYSLSSTLTLSKADYEKHKVYACEVTHQGLSSPVTKSFNRGEC | 
 |  |  |  | 12 pM | 1.28e-06 s⁻¹ | 107000 M⁻¹ s⁻¹ | 1-G5_VH-par_L1 (antibody, human IgG1, kappa, also called 1-G5_L1 (hIgG1K)) heavy chain: not shown light chain: DPQMTQSPSSLSASVGDRVTITCQASQSVYNNNYLSWYQQKPGKAPKLLIYDASTLASGVPSRFSGSGSGTDFTLTISSLQPEDFATYYCQGSYYSGGWDTAFGGGTKVEIKTVAAPSVFIFPPSDEQLKSGTASVVCLLNNFYPREAKVQWKVDNALQSGNSQESVTEQDSKDSTYSLSSTLTLSKADYEKHKVYACEVTHQGLSSPVTKSFNRGEC | 
 |  |  |  | 3.58 pM | 3.8e-07 s⁻¹ | 106000 M⁻¹ s⁻¹ | 1-G5_VH-par_L0 (antibody, human IgG1, kappa, also called 1-G5_L0 (hIgG1K)) heavy chain: not shown light chain: DIQMTQSPSSLSASVGDRVTITCQASQSVYNNNYLSWYQQKPGKAPKLLIYDASTLASGVPSRFSGSGSGTDFTLTISSLQPEDFATYYCQGSYYSGGWDTAFGGGTKVEIKTVAAPSVFIFPPSDEQLKSGTASVVCLLNNFYPREAKVQWKVDNALQSGNSQESVTEQDSKDSTYSLSSTLTLSKADYEKHKVYACEVTHQGLSSPVTKSFNRGEC | 
 |  |  | < 1000 pM |  |  |  | 1-G5_H1_L0 (antibody, human IgG1, kappa, humanised, human IgG1 kappa) heavy: not shown light: DIQMTQSPSSLSASVGDRVTITCQASQSVYNNNYLSWYQQKPGKAPKLLIYDASTLASGVPSRFSGSGSGTDFTLTISSLQPEDFATYYCQGSYYSGGWDTAFGGGTKVEIKTVAAPSVFIFPPSDEQLKSGTASVVCLLNNFYPREAKVQWKVDNALQSGNSQESVTEQDSKDSTYSLSSTLTLSKADYEKHKVYACEVTHQGLSSPVTKSFNRGEC | 
